Results on one molecule are retold here after US20250326860A1 (ADAGENE PTE, published 2025).

The term EC50 denotes the concentration needed to bring the measured effect to its halfway point.

Experiment [1] has as its target T1, cynomolgus monkey CD3 on T cells (cynomolgus monkey, UniProt Q95LI5 22-198).
T1 construct: whole, on cells
In words: flow cytometry, monkey CD3+ T cells. The text has this: (§1) Human PBMCs were freshly isolated from the blood of healthy donors by density gradient centrifugation using Histopaque-1077 (Sigma). Human CD3+ T cells were further isolated from PBMCs using the Human T Cell Enrichment Kit (Stem Cell Technologies). Monkey PBMCs were isolated from a naïve cynomolgus monkey by density gradient centrifugation using Histopaque-1077 (Sigma). Monkey CD3+ T cells were isolated from PBMCs using the Pan T Cell Isolation Kit Non-Human Primate (Miltenyi Biotec). Purified human or monkey CD3+ T cells were stained with the testing antibodies as the primary antibody and the APC-labelled anti-human-Fc antibody (BioLegend) as the secondary antibody. After washing, the cells were analyzed on the CytoFLEX flow cytometer (Beckman Coulter) and the data was analyzed by FlowJo software.
A general note: A flow cytometer gives signals particle by particle.

Experiment [2] concerns the target T2, cynomolgus monkey CD20 on B cells (cynomolgus monkey, UniProt M4ZHZ6 1-297).
T2 construct: whole, on cells
T2 sequence: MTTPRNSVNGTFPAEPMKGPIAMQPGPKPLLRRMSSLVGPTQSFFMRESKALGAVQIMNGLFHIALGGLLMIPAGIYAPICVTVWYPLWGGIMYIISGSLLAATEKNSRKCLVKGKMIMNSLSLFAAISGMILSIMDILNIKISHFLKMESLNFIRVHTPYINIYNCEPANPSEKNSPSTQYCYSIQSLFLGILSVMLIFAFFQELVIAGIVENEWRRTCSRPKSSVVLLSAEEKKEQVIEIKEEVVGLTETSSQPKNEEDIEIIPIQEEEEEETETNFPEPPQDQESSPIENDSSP
Description: flow cytometry, monkey B cells. The text has this: (§2) Human and monkey PBMCs were isolated as mentioned above. Human B cells were further isolated from PBMCs using the EasySep™ Human B Cell Isolation Kit (Stem Cell Technologies). Monkey B cells were isolated from PBMCs using the Non-Human B Primate Cell Isolation Kit (Stem Cell Technologies). Purified human or monkey B cells were stained with the testing antibodies as the primary antibody and the APC-labelled anti-human-Fc antibody (BioLegend) as the secondary antibody. After washing, the cells were analyzed on the CytoFLEX flow cytometer (Beckman Coulter) and the data was analyzed by FlowJo software.

The target in experiment [3] is T3, human CD3 on cells (Jurkat cells, human T cells) (human, UniProt P07766 23-207).
T3 construct: whole, on cells
T3 sequence (P07766 23-207): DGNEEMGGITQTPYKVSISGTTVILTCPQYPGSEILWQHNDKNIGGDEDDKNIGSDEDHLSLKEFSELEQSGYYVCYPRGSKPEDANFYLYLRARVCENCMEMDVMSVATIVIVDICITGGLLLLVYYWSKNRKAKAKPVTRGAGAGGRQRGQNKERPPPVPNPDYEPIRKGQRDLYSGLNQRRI
In words: binding to human CD3+ T cells.

Experiment [4] addresses T4, human CD20 on cells (human B cells; Raji, SU-DHL-8, SU-DHL-4, A3KAW, NAMALWA) (human, UniProt P11836 1-297).
T4 construct: whole, on cells
T4 sequence (looked up): T2 sequence with P25S, L31F, A51T, V157A, R217K, S226N, V227I, V239T
Description: flow cytometry, SU-DHL-4 cells. How it is done:
(§3) Raji, SU-DHL-8, SU-DHL-4, A3KAW and NAMALWA were B-cell lymphoma cell lines with various CD20 expression levels on cell surface. Briefly, the test antibodies were serial diluted and were incubated with the tumor cells on ice. After washing, the cells were subsequently incubated with the APC-labelled anti-human-Fc secondary antibody (BioLegend) on ice. The cells were then washed with PBS prior to analysis by the CytoFLEX flow cytometer (Beckman Coulter). The data was analyzed by FlowJo software.

In experiment [5] the target is T4, human CD20 on cells (human B cells; …). In words: flow cytometry, Raji cells. The procedure: as §3
Experiment [6] deals with T3, human CD3 on cells (Jurkat cells, human …). In words: binding to human CD4+ T cells.
The target of experiment [7] is T4, human CD20 on cells (human B cells; …). In words: flow cytometry, human B cells.
Source text: as §2

For experiment [8] the target is unchanged. In words: flow cytometry, NAMALWA cells. The procedure:
as §3

Experiment [9] has as its target T1, cynomolgus monkey CD3 on T cells. In words: flow cytometry, purified monkey CD3+ T cells.
Experiment [10] has as its target T4, human CD20 on cells (human B cells; …). In words: binding to human B cells.
The target in experiment [11] is T3, human CD3 on cells (Jurkat cells, human …). In words: binding to human CD8+ T cells.
Experiment [12] has as its target T4, human CD20 on cells (human B cells; …). In words: binding to Raji cells.
Experiment [13] addresses T3, human CD3 on cells (Jurkat cells, human …). In words: flow cytometry, human CD3+ T cells.
Source text: as §1

Experiment [14] has as its target T4, human CD20 on cells (human B cells; …). In words: flow cytometry, A3KAW cells. The procedure:
as §3

For experiment [15] the target is unchanged. In words: flow cytometry, SU-DHL-8 cells. The procedure:
as §3

Substitutions are numbered along the chain they refer to.

T1 sequence (Q95LI5 22-198): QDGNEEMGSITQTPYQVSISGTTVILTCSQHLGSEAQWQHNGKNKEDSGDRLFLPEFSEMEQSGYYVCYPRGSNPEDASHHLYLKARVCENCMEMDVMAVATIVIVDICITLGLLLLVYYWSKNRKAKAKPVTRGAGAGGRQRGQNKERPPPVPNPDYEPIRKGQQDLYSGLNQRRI

B1: TY25606 (bispecific antibody, human IgG1, kappa, N297A)
light: QIVLSQSPAILSASPGEKVTMTCRASSSVSYIHWFQQKPGKSPKPWIYATSNLASGVPVRFSGSGSGTSYSLTISRVEAEDAATYYCQQWTSNPPTFGGGTKVEIKRTVAAPSVFIFPPSDEQLKSGTASVVCLLNNFYPREAKVQWKVDNALQSGNSQESVTEQDSKDSTYSLSSTLTLSKADYEKHKVYACEVTHQGLSSPVTKSFNRGEC
heavy: EVQLVQSGAEVKKPGSSVKVSCKASGYTFTSYNMHWVRQAPGKGLEWIGAIYPGSGDTSYNQKFKGRVTITADKSTSTAYMELSSLRSEDTAVYYCARSTYYGGDWYFNVWGQGTLVTVSSASTKGPSVFPLAPSSKSTSGGTAALGCLVKDYFPEPVTVSWNSGALTSGVHTFPAVLQSSGLYSLSSVVTVPSSSLGTQTYICNVNHKPSNTKVDKKVEPKSCDKTHTCPPCPAPELLGGPSVFLFPPKPKDTLMISRTPEVTCVVVDVSHEDPEVKFNWYVDGVEVHNAKTKPREEQYASTYRVVSVLTVLHQDWLNGKEYKCKVSNKALPAPIEKTISKAKGQPREPQVYTLPPSRKKLTKNQVKLTCLVKGFYPSDIAVEWESNGQPENNYKTTPPVLDCDGSFFLYSKLTVDKSRWQQGNVFSCSVMHEALHNHYTQKSLSLSPGK
chain: EVGSYPYDDPDCPSHESDCDQGGGPLGLAGGSQAVVTQEPSLTVSPGGTVTLTCGSSTGAVTTSNYPNWVQQKPGQAPRGLIGGTNKRAPGVPARFSGSLLGGKAALTLSGAQPEDEAEYYCALWYSNLWVFGGGTKLTVLGGGGSGGGGSGGGGSGGGGSEVQLVESGGGLVQPGGSLRLSCAASGFTFNTYAINWVRQAPGKGLEWVGRIRSKYNNYATYYAESVKGRFTISRDDSKNTLYLQINSLRAEDTAVYYCVRHGNFGTSYVSWFAYWGQGTLVTVSSEPKSSDKTHTCPPCPAPELLGGPSVFLFPPKPKDTLMISRTPEVTCVVVDVSHEDPEVKFNWYVDGVEVHNAKTKPREEQYASTYRVVSVLTVLHQDWLNGKEYKCKVSNKALPAPIEKTISKAKGQPREPQVYTDPPSRDELTKNQVSLTCLVDGFYPSDIAVEWESNGQPENCYKTTPPVLDSDGSFFLYSKLTVDKSRWQQGNVFSCSVMHEALHNHYTQDSLSLSPGK
notes: also called SAFEbody/bispecific
Regarding B1, the “max MFI” value in experiment [1] is 174 MFI; in [2] it was 36000 MFI; in experiment [7] it was 51600 MFI; in experiment [13] it was 1090 MFI. The EC50 was 14.4 nM in [2]; above 2000 nM in experiment [3]; 16 nM in [4]; 35 nM in experiment [5]; above 2000 nM in experiment [6]; 11.7 nM in [7]. The concentration for a half-maximal effect (EC50) in experiment [8] was 90.4 nM; in experiment [10] it was 78.2 nM; in experiment [11], above 2000 nM; in experiment [12], 35 nM; in experiment [14], 121 nM; in experiment [15], 43 nM. In addition, the “Max MFI” value was determined as 2.67e+06 MFI in experiment [4]; 24200 MFI in [5]; 656000 MFI in experiment [8]; 942000 MFI in experiment [14]; 5790 MFI in experiment [15]. Moreover, the binding result in [9] was “no binding”.
